These results are taken from patent publication US20210292392A1 (TSB THERAPEUTICS BEIJING, published 2021).

In assay [1] the target is recombinant RBD of the spike protein of SARS-CoV (SARS-CoV, UniProt P59594 306-527). In words: SPR, RBD on CM5 chip. For orientation: Surface plasmon resonance follows binding to a sensor surface in real time, without labels.
Assay [2] deals with T1, full length spike of MERS-CoV (MERS-CoV, UniProt K9N5Q8 18-1353).
T1 construct: whole, on cells
In words: FACS, HEK 293T cells expressing the full length spike, anti-human IgG Fc PE.

The target of assay [3] is T2, full length spike of SARS-CoV (SARS-CoV, UniProt P59594 14-1255).
T2 construct: whole, on cells
The assay is described as above.

T1 sequence (K9N5Q8 18-751, chain 1 of 2): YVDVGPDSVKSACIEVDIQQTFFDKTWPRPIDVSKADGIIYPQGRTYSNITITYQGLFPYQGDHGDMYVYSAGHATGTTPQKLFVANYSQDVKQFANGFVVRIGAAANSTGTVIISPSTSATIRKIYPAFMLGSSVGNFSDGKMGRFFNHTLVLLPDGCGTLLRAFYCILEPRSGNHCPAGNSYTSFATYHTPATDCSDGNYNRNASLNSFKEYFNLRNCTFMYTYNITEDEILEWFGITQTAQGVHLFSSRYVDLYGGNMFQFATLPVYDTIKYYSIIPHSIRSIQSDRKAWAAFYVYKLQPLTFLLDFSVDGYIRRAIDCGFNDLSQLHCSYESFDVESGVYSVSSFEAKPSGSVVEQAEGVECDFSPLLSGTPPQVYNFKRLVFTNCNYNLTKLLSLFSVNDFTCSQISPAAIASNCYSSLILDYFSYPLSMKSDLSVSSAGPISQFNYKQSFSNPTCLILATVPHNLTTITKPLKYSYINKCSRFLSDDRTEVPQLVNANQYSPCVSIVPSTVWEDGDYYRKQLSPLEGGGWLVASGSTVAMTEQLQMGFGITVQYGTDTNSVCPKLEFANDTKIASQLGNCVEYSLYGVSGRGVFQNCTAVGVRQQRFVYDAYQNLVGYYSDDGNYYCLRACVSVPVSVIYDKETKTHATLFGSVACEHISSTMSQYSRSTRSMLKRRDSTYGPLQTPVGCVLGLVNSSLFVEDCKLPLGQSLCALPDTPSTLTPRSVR
T1 sequence (K9N5Q8 752-1353, chain 2 of 2): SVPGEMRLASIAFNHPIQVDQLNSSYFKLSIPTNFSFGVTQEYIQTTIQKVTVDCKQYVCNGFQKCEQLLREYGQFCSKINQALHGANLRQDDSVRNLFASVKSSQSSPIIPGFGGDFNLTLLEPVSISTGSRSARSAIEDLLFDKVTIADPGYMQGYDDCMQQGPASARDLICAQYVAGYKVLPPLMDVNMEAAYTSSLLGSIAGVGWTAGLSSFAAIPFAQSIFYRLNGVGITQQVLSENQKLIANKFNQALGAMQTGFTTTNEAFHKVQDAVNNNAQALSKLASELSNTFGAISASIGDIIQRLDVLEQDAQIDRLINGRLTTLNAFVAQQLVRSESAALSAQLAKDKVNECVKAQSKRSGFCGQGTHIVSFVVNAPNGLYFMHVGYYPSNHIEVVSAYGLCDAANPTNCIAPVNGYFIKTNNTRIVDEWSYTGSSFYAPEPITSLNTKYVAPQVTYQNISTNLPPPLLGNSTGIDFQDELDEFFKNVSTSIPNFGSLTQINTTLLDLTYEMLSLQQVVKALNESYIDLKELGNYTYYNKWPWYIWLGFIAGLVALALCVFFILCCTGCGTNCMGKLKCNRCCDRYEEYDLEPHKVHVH

B1: P1A-1C10 (antibody, V domains shown)
VH: QVQLVQSGAEVKNPGSSVKVSCKAGGGTSSFYDINWVRQAPGQGLEWIGKIIPRLDIADYAQKSQGRVTITADKSTSTVYLELSSLKSDDTAVYFCARGRPGSEWAYGPFDLWGQGTLVTVSS
VL: DIQMTQSPSTLSASVGDRVTITCRASQSSRAWLAWYQQKPGKAPKLLISKASSLESGVPSRFSGSGYGTEFTLTISSLQPDDSATYYCHQYNSSPFTFGPGTKVQIKR
notes: human IgG1, kappa
In the case of B1, the values for the binding result in assay [1], in assay [2] and in assay [3] were “no binding (tested: not printed)”, “no binding (tested: 20 µg/ml)” and “no binding (tested: 20 µg/ml)”, respectively.
